Experimental data reported in PMC8769549.
pKd: −log10 of the molar value.

Experiments:
[1] = molecular target: SARS-CoV-2 nsp3 ubiquitin-like domain Ubl1 (1 to 111) (SARS-CoV-2); test: ITC
[2] = molecular target: SARS-CoV-2 nsp3a (1 to 206) (SARS-CoV-2); test: ITC

## SARS-CoV-2 nucleoprotein N123 (domains N1, N2 and N3) (domain or fragment)
[1]
  pKd: 7.14
  stoichiometry N: 0.903
[2]
  pKd: 6.88
  stoichiometry N: 0.665
